The values that follow are results of earlier work, collected in publication PMC4040926.

pKd: −log10 of the molar value.

This data set has as its target SNARE complex (Rattus norvegicus) (UniProt P32851). The data set is described as follows: ITC. For orientation: ITC needs no label: the signal is the heat of the interaction.
Sequence of UniProt P32851 (P32851 whole entry, chain 1 of 3): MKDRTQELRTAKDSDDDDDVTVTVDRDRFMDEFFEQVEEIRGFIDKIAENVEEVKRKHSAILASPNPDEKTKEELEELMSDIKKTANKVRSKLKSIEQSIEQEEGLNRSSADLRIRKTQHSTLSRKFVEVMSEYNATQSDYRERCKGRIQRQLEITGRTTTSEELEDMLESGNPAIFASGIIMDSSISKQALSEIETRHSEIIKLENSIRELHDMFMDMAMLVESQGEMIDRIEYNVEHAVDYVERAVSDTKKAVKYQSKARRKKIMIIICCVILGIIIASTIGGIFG
Sequence of UniProt P32851 (B2RAU4 whole entry, chain 2 of 3, further chain): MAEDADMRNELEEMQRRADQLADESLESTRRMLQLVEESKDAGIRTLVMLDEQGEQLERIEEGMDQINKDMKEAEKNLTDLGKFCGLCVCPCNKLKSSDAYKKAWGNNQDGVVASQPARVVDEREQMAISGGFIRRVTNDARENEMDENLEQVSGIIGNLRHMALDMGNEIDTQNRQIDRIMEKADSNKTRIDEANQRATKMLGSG
Sequence of UniProt P32851 (P63044 2-116, chain 3 of 3, further chain): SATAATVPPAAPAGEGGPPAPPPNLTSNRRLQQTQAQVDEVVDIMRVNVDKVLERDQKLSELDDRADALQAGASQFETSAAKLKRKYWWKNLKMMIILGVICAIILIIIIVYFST

By pKd is commonly meant the negative decadic logarithm of the Kd, by convention in mol/L. On to Complexin-I 26-83 (from UniProt P63041), for which the pKd was 7.60.
